Experimental data taken from PMC7331920.

What was measured:
JADE1 PHD finger 1 = experiment: fluorescence polarisation
[1] = target: PHF14 PHD finger 1 (GST-fusion protein); experiment: fluorescence polarisation

Substance	Kd (JADE1 PHD finger 1) [µM]	Kd [1] [µM]
H3K4me0 peptide (unmodified / wild-type H3 tail peptide)	32	7
H3K4me3 peptide	> 100	–
H3K4norleucine peptide	> 100	–
